Reference: publication PMC3585047 (The Journal of Biological Chemistry, 2013)

Target: APOBEC3G, fluorescein-labelled (F-A3G) (human, UniProt Q9HC16 1-384, fluorescein (Fluorescein-EX Protein Labeling kit), sites not stated)
Assay: fluorescence polarisation

Sequence of APOBEC3G, fluorescein-labelled (F-A3G) (Q9HC16 whole entry): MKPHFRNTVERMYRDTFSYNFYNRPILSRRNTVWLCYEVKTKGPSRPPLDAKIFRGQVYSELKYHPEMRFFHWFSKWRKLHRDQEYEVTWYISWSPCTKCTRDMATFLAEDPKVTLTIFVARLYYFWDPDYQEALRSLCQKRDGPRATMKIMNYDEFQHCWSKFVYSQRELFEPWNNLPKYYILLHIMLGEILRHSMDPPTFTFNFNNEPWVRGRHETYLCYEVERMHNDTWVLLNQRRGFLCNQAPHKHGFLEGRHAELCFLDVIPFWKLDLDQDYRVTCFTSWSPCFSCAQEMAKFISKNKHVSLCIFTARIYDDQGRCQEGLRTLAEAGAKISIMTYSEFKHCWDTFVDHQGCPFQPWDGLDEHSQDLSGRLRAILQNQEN

B1: GST-Vif_(HXB2) (natural protein)
chain: not shown
Question: B1 was tested. Which Kd did it give?
Answer: Its Kd is 90 nM.

B2: GST-Vif_(IIIB) (natural protein)
chain: not shown
Question: How did the Kd turn out when B2 was run?
Answer: Its Kd is 78 nM.
